These are literature values, as cited in publication PMC3877032.

One data set concerns the target PLD1 (Homo sapiens) (UniProt Q13393).
A further data set has as its target ERK2 (Homo sapiens) (UniProt P28482).
Sequence of UniProt P28482 (P28482 2-360): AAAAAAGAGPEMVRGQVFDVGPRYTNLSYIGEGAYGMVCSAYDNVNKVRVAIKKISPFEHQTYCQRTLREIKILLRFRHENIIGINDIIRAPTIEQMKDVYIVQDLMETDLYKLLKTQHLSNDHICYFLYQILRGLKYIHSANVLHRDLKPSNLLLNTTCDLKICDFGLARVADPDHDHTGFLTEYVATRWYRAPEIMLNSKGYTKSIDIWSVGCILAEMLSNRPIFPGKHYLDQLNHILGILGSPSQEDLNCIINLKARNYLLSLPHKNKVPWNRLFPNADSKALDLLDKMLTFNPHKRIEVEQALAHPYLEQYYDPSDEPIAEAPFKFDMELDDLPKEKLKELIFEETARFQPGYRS

Sequence of UniProt Q13393 (Q13393 whole entry): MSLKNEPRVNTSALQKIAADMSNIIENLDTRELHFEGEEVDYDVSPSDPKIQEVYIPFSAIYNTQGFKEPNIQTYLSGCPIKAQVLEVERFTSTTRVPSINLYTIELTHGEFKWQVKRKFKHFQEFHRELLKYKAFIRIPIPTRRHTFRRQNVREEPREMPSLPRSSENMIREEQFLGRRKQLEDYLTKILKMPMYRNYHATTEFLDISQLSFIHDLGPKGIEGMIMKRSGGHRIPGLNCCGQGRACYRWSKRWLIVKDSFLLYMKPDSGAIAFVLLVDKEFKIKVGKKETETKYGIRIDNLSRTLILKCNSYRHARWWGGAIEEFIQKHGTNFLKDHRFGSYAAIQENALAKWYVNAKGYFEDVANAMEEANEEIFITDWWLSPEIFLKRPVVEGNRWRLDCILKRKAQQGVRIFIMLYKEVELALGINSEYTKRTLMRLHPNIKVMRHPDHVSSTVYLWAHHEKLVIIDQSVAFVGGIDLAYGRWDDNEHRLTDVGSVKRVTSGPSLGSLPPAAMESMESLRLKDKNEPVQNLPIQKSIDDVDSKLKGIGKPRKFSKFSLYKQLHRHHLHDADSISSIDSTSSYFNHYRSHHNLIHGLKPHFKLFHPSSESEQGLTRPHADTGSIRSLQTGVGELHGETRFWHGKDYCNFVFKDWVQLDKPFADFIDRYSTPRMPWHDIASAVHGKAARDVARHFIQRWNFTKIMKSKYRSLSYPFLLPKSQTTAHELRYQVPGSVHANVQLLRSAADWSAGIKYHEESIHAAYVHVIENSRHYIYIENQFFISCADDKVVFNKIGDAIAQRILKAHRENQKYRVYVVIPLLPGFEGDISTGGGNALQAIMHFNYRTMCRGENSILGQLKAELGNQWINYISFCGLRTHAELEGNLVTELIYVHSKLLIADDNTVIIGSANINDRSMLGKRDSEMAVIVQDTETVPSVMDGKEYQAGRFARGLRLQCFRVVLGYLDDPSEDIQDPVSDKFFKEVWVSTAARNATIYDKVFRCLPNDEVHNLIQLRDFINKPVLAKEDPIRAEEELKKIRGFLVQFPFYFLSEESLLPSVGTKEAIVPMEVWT

For the substance PEA-15 (from UniProt Q15121), the Kd (as a rule, the concentration at which binding is half-saturated) with PLD1 (Homo sapiens) was 370 nM; with ERK2 (Homo sapiens), 133 nM.
